No end group written: not given here. *: point of attachment. Biotin = O=C1N[C@H]2[C@H](CS[C@H]2CCCCC(=O)*)N1
B1: human glycophorin A in the red blood cell membrane (other, UniProt P02724 20-150, looked up)
chain: LSTTEVAMHTSTSSSVTKSYISSQTNDTHKRDTYAATPRAHEVSEISVRTVYPPEEETGERVQLAHHFSEPEITLIIFGVMAGVIGTILLISYGIRRLIKKSPSDVKPLPSPDTDVPLSSVEIENPETSDQ
notes: whole, on cells; used for intact RBC, isolated RBC membranes and transfected cells; the assay field tells which; also called GPA; hGPA

Columns and labels:
B-domain deleted FVIII = target: T1, B-domain deleted FVIII (human, UniProt P00451 20-2351); experiment: RBC partition assay, FVIII activity left in plasma
T1 construct: control without scFv; also called BDD; BDD-FVIII
T1 sequence (looked up): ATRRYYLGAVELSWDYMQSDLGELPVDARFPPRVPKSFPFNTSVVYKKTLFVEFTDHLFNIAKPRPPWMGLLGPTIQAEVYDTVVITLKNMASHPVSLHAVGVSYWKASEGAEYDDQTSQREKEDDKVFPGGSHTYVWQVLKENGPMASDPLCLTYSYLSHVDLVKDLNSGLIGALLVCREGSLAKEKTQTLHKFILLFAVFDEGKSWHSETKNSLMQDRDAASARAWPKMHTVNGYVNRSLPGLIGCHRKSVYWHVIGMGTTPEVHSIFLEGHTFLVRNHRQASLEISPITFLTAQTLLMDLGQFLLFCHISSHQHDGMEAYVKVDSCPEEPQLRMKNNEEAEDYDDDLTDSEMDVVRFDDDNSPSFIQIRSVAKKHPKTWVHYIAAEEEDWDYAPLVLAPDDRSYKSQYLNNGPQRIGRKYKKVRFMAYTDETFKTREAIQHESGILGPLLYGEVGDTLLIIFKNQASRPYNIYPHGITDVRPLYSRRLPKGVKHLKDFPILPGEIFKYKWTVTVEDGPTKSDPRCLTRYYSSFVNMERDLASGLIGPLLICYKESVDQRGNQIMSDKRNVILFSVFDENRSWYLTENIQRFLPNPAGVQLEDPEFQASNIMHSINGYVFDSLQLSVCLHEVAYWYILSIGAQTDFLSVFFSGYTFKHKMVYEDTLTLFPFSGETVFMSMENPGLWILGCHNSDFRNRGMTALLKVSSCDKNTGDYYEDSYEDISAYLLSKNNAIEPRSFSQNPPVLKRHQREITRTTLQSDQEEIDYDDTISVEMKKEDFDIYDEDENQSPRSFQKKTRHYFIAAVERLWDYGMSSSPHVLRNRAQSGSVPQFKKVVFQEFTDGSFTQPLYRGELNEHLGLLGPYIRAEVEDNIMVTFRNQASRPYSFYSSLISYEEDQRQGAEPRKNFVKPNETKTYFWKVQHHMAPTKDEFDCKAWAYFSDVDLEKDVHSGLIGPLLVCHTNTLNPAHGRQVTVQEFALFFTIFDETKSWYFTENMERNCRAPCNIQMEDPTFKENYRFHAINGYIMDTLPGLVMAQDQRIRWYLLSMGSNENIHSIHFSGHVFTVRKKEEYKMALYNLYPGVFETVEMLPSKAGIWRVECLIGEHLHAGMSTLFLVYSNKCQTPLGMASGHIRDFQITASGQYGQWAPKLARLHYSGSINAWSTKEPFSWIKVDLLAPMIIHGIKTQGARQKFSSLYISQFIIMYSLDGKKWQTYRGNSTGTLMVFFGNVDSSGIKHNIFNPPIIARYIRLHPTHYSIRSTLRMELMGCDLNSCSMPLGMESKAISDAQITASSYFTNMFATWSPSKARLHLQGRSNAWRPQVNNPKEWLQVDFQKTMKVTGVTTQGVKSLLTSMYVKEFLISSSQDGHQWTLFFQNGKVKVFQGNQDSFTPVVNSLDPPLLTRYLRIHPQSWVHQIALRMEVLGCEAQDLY

[1] = target: T2, GP5-16 alanine scanning peptide (human, N-terminal biotin); experiment: alanine scanning peptide ELISA
T2 construct: GP5 with alanine at position 16
T2 peptide: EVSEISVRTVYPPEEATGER

[2] = target: T3, GP5-14 alanine scanning peptide (human, N-terminal biotin); experiment: alanine scanning peptide ELISA
T3 construct: GP5 with alanine at position 14
T3 peptide: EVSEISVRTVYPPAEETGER

[3] = target: T4, GP5-13 alanine scanning peptide (human, N-terminal biotin); experiment: alanine scanning peptide ELISA
T4 construct: GP5 with alanine at position 13
T4 peptide: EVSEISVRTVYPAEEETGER

[4] = target: T5, GP5-11 alanine scanning peptide (human, N-terminal biotin); experiment: alanine scanning peptide ELISA
T5 construct: GP5 with alanine at position 11
T5 peptide: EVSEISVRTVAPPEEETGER

[5] = target: B1; experiment: SPR, human RBC membranes, Fab
Procedure: Kinetic analysis of the antibody binding to human red blood cell membranes was also performed using surface plasmon resonance (SPR) using a Biacore instrument. In this assay membranes prepared from human red blood cells were attached to a L1 sensor matrix and antibodies were flowed over the RBC membranes.

GP15 peptide = target: T6, GP15 peptide (human); experiment: peptide ELISA, Fab
T6 peptide: Biotin-EEETGERV
Source text: (§1) These peptides were attached to the surface of a streptavidin coated plate via a biotin moiety that was present at the N-terminus of each peptide.

GP10 peptide = target: T7, GP10 peptide (human); experiment: peptide ELISA, Fab
T7 peptide: Biotin-TVYPPEEE
Source text: as §1

GP14 peptide = target: T8, GP14 peptide (human); experiment: peptide ELISA, Fab
T8 peptide: Biotin-PEEETGER
Source text: as §1

GP16 peptide = target: T9, GP16 peptide (human); experiment: peptide ELISA, Fab
T9 peptide: Biotin-EETGERVQ
Source text: as §1

GP7 peptide = target: T10, GP7 peptide (human); experiment: peptide ELISA, Fab
T10 peptide: Biotin-SVRTVYPP
Source text: as §1

GP11 peptide = target: T11, GP11 peptide (human); experiment: peptide ELISA, Fab
T11 peptide: Biotin-VYPPEEET
Source text: as §1

GP13 peptide = target: T12, GP13 peptide (human); experiment: peptide ELISA, Fab
T12 peptide: Biotin-PPEEETGE
Source text: as §1

GP9 peptide = target: T13, GP9 peptide (human); experiment: peptide ELISA, Fab
T13 peptide: Biotin-RTVYPPEE
Source text: as §1

GP12 peptide = target: T14, GP12 peptide (human); experiment: peptide ELISA, Fab
T14 peptide: Biotin-YPPEEETG
Source text: as §1

GP8 peptide = target: T15, GP8 peptide (human); experiment: peptide ELISA, Fab
T15 peptide: Biotin-VRTVYPPE
Source text: as §1

B1
binding result (B-domain deleted FVIII): no binding (tested: 1 IU/mL)

B2: TPP-5906 Fab (Fab, V domains shown)
VH: EVQLVQSGAEVKKPGASVKVSCKASGYTFTTYTIHWVRQAPGQGLEWMGYINPSSGYTRYNPKFKGRVTMTRDKSTSTAYMELRSLRSDDTAVYYCQTGTRDYWGQGTTVTVSS
VL: DIQLTQSPSFLSASVGDRVTITCRASSSVSYIYWFQQKPGKAPKLLIYATSTLQSGVPSRFSGSGSGTEYTLTISSLQPEDFATYYCHQRNSFPYTFGQGTKLEIKR
notes: also called parental humanized and germlined 6C12 Fab
percent reduction of binding [1]: 50%
percent reduction of binding [2]: > 95%
percent reduction of binding [3]: 70%
percent reduction of binding [4]: > 95%
fold improvement of affinity against the parental antibody [5]: ~200 fold
binding result (GP15 peptide): no binding (tested: 0.5 ug/ml)
binding result (GP10 peptide): no binding (tested: 0.5 ug/ml)
binding result (GP14 peptide): no binding (tested: 0.5 ug/ml)
binding result (GP16 peptide): no binding (tested: 0.5 ug/ml)
binding result (GP7 peptide): no binding (tested: 0.5 ug/ml)
binding result (GP11 peptide): no binding (tested: 0.5 ug/ml)
binding result (GP13 peptide): no binding (tested: 0.5 ug/ml)
binding result (GP9 peptide): no binding (tested: 0.5 ug/ml)
binding result (GP12 peptide): no binding (tested: 0.5 ug/ml)
binding result (GP8 peptide): no binding (tested: 0.5 ug/ml)

Source: patent publication US20190359687A1 (Bayer, published 2019)
